The source of these data is publication PMC7243947, “AcDCXR Is a Cowpea Aphid Effector With Putative Roles in Altering Host Immunity and Physiology” (Frontiers in Plant Science, 2020).

Substrate in data set [1]: CC(=O)C=O
Nature of the data set: purified protein. It counts as biochemical, Aphis craccivora. The note with it: 200 μM NADPH (methods; figure legend prints 200 mM), sodium phosphate pH 6.5, methylglyoxal varied.

Substrate in data set [2]: NC(=O)c1ccc[n+]([C@@H]2O[C@H](COP(=O)(O)OP(=O)(O)OC[C@H]3O[C@@H](n4cnc5c(N)ncnc54)[C@H](OP(=O)(O)O)[C@@H]3O)[C@@H](O)[C@H]2O)c1
Nature of the data set: purified protein. It counts as biochemical, Aphis craccivora. The note with it: 200 mM xylitol fixed, NADP+ varied, 100 mM glycine pH 9.5, 3 mM MgCl2, paper speaks of it as constant of xylitol oxidation, varied: cofactor.

As usually defined, the Km is the substrate concentration at which the rate is half of its maximum. For orientation: kcat means the maximal rate divided by the concentration of active sites.

B1: AcDCXR (Aphis craccivora) (protein)
chain: MEEFFVGKKFIVTGANAGIGETITKRLVQLGAHVFAVGRDPKKLPPAGPNLTPVCADVGDWDSYDIIKKLGPVHGLVNNAGVAFIESFFDMTQEGWDKTLNINARGIVRISQAVAQNMKDAGIKGSIVNVSSTISERAIPDHTSYCASKGAVNQVTRVMSIELGKLGIRTNNVNPTVVMTKMGAKAWSDPEKSNPILSRIPLGRFAECDDVANVTLFLLSDYSTYVNGVSIPVDGGFLAS
notes: coding region without predicted signal peptide (first 23 of at least 263 residues); pDEST17 N-terminal 6xHis tag, no cleavage told; E. coli ArcticExpress
B1: the results for the Km in data set [1] and in data set [2] were 1300 µM and 560 µM, respectively. The kcat was 0.23 s⁻¹ in data set [1] and 1.85 s⁻¹ in data set [2].
